Measured values as given in patent publication US20120034160A1 (AbbVie / Abbott, published 2012).
Several values for one entry are separate records, joined by “and”; a condition that tells them apart may be missing. Equal entries are not always repeated.

T1: Recombinant Human IL-17 (human, UniProt Q16552 20-155, limits assumed)
T1 sequence (looked up): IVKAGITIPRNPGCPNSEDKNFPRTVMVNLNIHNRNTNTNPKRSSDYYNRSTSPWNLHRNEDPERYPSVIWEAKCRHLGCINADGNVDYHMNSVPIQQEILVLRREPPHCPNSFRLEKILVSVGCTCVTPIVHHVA

B1: DVD1640 (bispecific antibody, human IgG1, kappa)
heavy: not shown
light: EIVLTQSPDFQSVTPKEKVTITCRASQNIGSELHWYQQKPDQSPKLLIKYASHSISGVPSRFSGSGSGTDFTLTINGLEAEDAATYYCHQSDTLPHTFGQGTKVDIKRTVAAPDIQMTQSPSSLSASVGDRVTITCRASGNIHNYLTWYQQTPGKAPKLLIYNAKTLADGVPSRFSGSGSGTDYTFTISSLQPEDIATYYCQHFWSIPYTFGQGTKLQITRTVAAPSVFIFPPSDEQLKSGTASVVCLLNNFYPREAKVQWKVDNALQSGNSQESVTEQDSKDSTYSLSSTLTLSKADYEKHKVYACEVTHQGLSSPVTKSFNRGEC
notes: V1/V2 vectors: wild type hIgG1, kappa
B2: DVD1642 (bispecific antibody, human IgG1, kappa)
heavy: not shown
light: EIVLTQSPDFQSVTPKEKVTITCRASQNIGSELHWYQQKPDQSPKLLIKYASHSISGVPSRFSGSGSGTDFTLTINGLEAEDAATYYCHQSDTLPHTFGQGTKVDIKRTVAAPDIQMTQSPSSLSASVGDRVTITCRASGNIHNYLTWYQQTPGKAPKLLIYNAKTLADGVPSRFSGSGSGTDYTFTISSLQPEDIATYYCQHFWSIPYTFGQGTKLQITRTVAAPSVFIFPPSDEQLKSGTASVVCLLNNFYPREAKVQWKVDNALQSGNSQESVTEQDSKDSTYSLSSTLTLSKADYEKHKVYACEVTHQGLSSPVTKSFNRGEC
notes: as for B1
B3: DVD1636 (bispecific antibody, human IgG1, kappa)
heavy: not shown
light: EIVLTQSPDFQSVTPKEKVTITCRASQDIGSELHWYQQKPDQPPKLLIKYASHSTSGVPSRFSGSGSGTDFTLTINGLEAEDAGTYYCHQTDSLPYTFGPGTKVDIKRTVAAPDTVVTQSPAFLSVTPGEKVTITCITSTDIDVDMNWYQQKPDQPPKLLISQGNTLRPGVPSRFSSSGSGTDFTFTISSLEAEDAATYYCLQSDNLPLTFGQGTKLEIKRTVAAPSVFIFPPSDEQLKSGTASVVCLLNNFYPREAKVQWKVDNALQSGNSQESVTEQDSKDSTYSLSSTLTLSKADYEKHKVYACEVTHQGLSSPVTKSFNRGEC
notes: DVD-Ig: outer AB274, inner AB271; V1/V2 vectors: wild type hIgG1, kappa
B4: DVD1646 (bispecific antibody, human IgG1, kappa)
heavy: not shown
light: EIVLTQSPDFQSVTPKEKVTITCRASQNIGSELHWYQQKPDQSPKLLIKYASHSISGVPSRFSGSGSGTDFTLTINGLEAEDAATYYCHQSDTLPHTFGQGTKVDIKRTVAAPDTVVTQSPAFLSVTPGEKVTITCITSTDIDVDMNWYQQKPDQPPKLLISQGNTLRPGVPSRFSSSGSGTDFTFTISSLEAEDAATYYCLQSDNLPLTFGQGTKLEIKRTVAAPSVFIFPPSDEQLKSGTASVVCLLNNFYPREAKVQWKVDNALQSGNSQESVTEQDSKDSTYSLSSTLTLSKADYEKHKVYACEVTHQGLSSPVTKSFNRGEC
notes: DVD-Ig: outer AB275, inner AB271; V1/V2 vectors: wild type hIgG1, kappa
B5: AB270 (antibody, human IgG1, kappa, V domains shown)
VH: EVQLQESGPGLVKPSETLSLTCTVSGFSLSDYGVSWIRQPPGKGLEWLGLIWGGGDTYYNSPLKSRLTISKDNSKSQVSLKLSSVTAADTAVYYCAKQRTLWGYDLYGMDYWGQGTLVTVSS
VL: DTQVTQSPSSLSASVGDRVTITCITSTDIDVDMNWYQQKPGKPPKLLISQGNTLRPGVPSRFSSSGSGTDFTFTISSLQPEDFATYYCLQSDNLPLTFGQGTKLEIKR
notes: constants by vectors: V1 wt hIgG1, V2 kappa
B6: AB271 (antibody, human IgG1, kappa, V domains shown)
VH: EVQLQESGPGLVKPSETLSLTCTVSGFSLSDYGVSWIRQPPGKGLEWLGLIWGGGDTYYNSPLKSRLTISKDNSKSQVSLKLSSVTAADTAVYYCAKQRTLWGYDLYGMDYWGQGTLVTVSS
VL: DTVVTQSPAFLSVTPGEKVTITCITSTDIDVDMNWYQQKPDQPPKLLISQGNTLRPGVPSRFSSSGSGTDFTFTISSLEAEDAATYYCLQSDNLPLTFGQGTKLEIKR
notes: as for B5
B7: DVD1634 (bispecific antibody, human IgG1, kappa)
heavy: not shown
light: EIVLTQSPDFQSVTPKEKVTITCRASQDIGSELHWYQQKPDQPPKLLIKYASHSTSGVPSRFSGSGSGTDFTLTINGLEAEDAGTYYCHQTDSLPYTFGPGTKVDIKRTVAAPDTQVTQSPSSLSASVGDRVTITCITSTDIDVDMNWYQQKPGKPPKLLISQGNTLRPGVPSRFSSSGSGTDFTFTISSLQPEDFATYYCLQSDNLPLTFGQGTKLEIKRTVAAPSVFIFPPSDEQLKSGTASVVCLLNNFYPREAKVQWKVDNALQSGNSQESVTEQDSKDSTYSLSSTLTLSKADYEKHKVYACEVTHQGLSSPVTKSFNRGEC
notes: DVD-Ig: outer AB274, inner AB270; V1/V2 vectors: wild type hIgG1, kappa
B8: DVD1638 (bispecific antibody, human IgG1, kappa)
heavy: not shown
light: EIVLTQSPDFQSVTPKEKVTITCRASQDIGSELHWYQQKPDQPPKLLIKYASHSTSGVPSRFSGSGSGTDFTLTINGLEAEDAGTYYCHQTDSLPYTFGPGTKVDIKRTVAAPETTVTQSPSSLSASVGDRVTITCITSTDIDVDMNWYQQKPGKPPKLLISQGNTLRPGVPSRFSSSGSGTDFTFTISSLQPEDFATYYCLQSDNLPLTFGQGTKLEIKRTVAAPSVFIFPPSDEQLKSGTASVVCLLNNFYPREAKVQWKVDNALQSGNSQESVTEQDSKDSTYSLSSTLTLSKADYEKHKVYACEVTHQGLSSPVTKSFNRGEC
notes: DVD-Ig: outer AB274, inner AB272; V1/V2 vectors: wild type hIgG1, kappa
B9: DVD1648 (bispecific antibody, human IgG1, kappa)
heavy: not shown
light: EIVLTQSPDFQSVTPKEKVTITCRASQNIGSELHWYQQKPDQSPKLLIKYASHSISGVPSRFSGSGSGTDFTLTINGLEAEDAATYYCHQSDTLPHTFGQGTKVDIKRTVAAPETTVTQSPSSLSASVGDRVTITCITSTDIDVDMNWYQQKPGKPPKLLISQGNTLRPGVPSRFSSSGSGTDFTFTISSLQPEDFATYYCLQSDNLPLTFGQGTKLEIKRTVAAPSVFIFPPSDEQLKSGTASVVCLLNNFYPREAKVQWKVDNALQSGNSQESVTEQDSKDSTYSLSSTLTLSKADYEKHKVYACEVTHQGLSSPVTKSFNRGEC
notes: DVD-Ig: outer AB275, inner AB272; V1/V2 vectors: wild type hIgG1, kappa

Assays:
Recombinant Human IL-1β [1] = molecular target: T2, Recombinant Human IL-1β (human, UniProt P01584 117-269); assay: cell-based or functional assay
Recombinant Human IL-17 [2] = molecular target: T1, Recombinant Human IL-17; assay: cell-based or functional assay
Recombinant Human IL-1β [3] = molecular target: T2, Recombinant Human IL-1β; assay: Biacore SPR; C-terminal VD
How it was run: (§1)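 Captured antibody or DVD-Ig bound antigen (10−200 nM) in HBS-EP at 25° C. KD = koff/kon from a 1:1 global fit.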

Recombinant Human IL-17 [4] = molecular target: T1, Recombinant Human IL-17; assay: Biacore SPR; N-terminal VD
How it was run: as §1

Recombinant Human IL-1β [5] = molecular target: T3, Recombinant Human IL-1β (human, UniProt P01584 117-269); assay: Biacore SPR
T3 construct: bought reagent; also called IL-1B
Description: The BIACORE assay (Biacore, Inc, Piscataway, N.J.) determines the affinity of antibodies or DVD-Ig with kinetic measurements of on-rate and off-rate constants. Binding of antibodies or DVD-Ig to a target antigen (for example, a purified recombinant target antigen) was determined by surface plasmon resonance-based measurements with a Biacore® 1000 or 3000 instrument (Biacore® AB, Uppsala, Sweden) using running HBS-EP (10 mM HEPES [pH 7.4], 150 mM NaCl, 3 mM EDTA, and 0.005% surfactant P20) at 25° C. All chemicals were obtained from Biacore® AB (Uppsala, Sweden) or otherwise from a different source as described in the text. For example, approximately 5000 RU of goat anti-mouse IgG, (Fcγ), fragment specific polyclonal antibody (Pierce Biotechnology Inc, Rockford, Ill.) diluted in 10 mM sodium acetate (pH 4.5) was directly immobilized across a CM5 research grade biosensor chip using a standard amine coupling kit according to manufacturer's instructions and procedures at 25 μg/ml. Unreacted moieties on the biosensor surface were blocked with ethanolamine. Modified carboxymethyl dextran surface in flowcell 2 and 4 was used as a reaction surface. Unmodified carboxymethyl dextran without goat anti-mouse IgG in flow cell 1 and 3 was used as the reference surface. For kinetic analysis, rate equations derived from the 1:1 Langmuir binding model were fitted simultaneously to association and dissociation phases of all eight injections (using global fit analysis) with the use of Biaevaluation 4.0.1 software. Purified antibodies or DVD-Ig were diluted in HEPES-buffered saline for capture across goat anti-mouse IgG specific reaction surfaces. Antibodies or DVD-Ig to be captured as a ligand (25 μg/ml) were injected over reaction matrices at a flow rate of 5 μl/min. The association and dissociation rate constants, kₒₙ (M⁻¹s⁻¹) and koff (s⁻¹) were determined under a continuous flow rate of 25 μl/min. Rate constants were derived by making kinetic binding measurements at different antigen concentrations ranging from 10−200 nM. The equilibrium dissociation constant (M) of the reaction between antibodies or DVD-Igs and the target antigen was then calculated from the kinetic rate constants by the following formula: KD=koff/kₒₙ. Binding was recorded as a function of time and kinetic rate constants are calculated.

Binder	C-Terminal VD IL-1β Neutralization Assay EC50 (Recombinant Human IL-1β [1]) [pM]	N-terminal VD IL-17 Neutralization Assay EC50 (Recombinant Human IL-17 [2]) [pM]	Kd (Recombinant Human IL-1β [3]) [pM]	koff (Recombinant Human IL-1β [3]) [s⁻¹]	kon (Recombinant Human IL-1β [3]) [M⁻¹ s⁻¹]	Kd (Recombinant Human IL-17 [4]) [pM]	koff (Recombinant Human IL-17 [4]) [s⁻¹]	kon (Recombinant Human IL-17 [4]) [M⁻¹ s⁻¹]	Kd (Recombinant Human IL-1β [5])	koff (Recombinant Human IL-1β [5])	kon (Recombinant Human IL-1β [5])
B1	2850	6.1	90	1.2e-05	130000	17	6.5e-05	3.8e+06	–	–	–
B2	628	4.3	< 1	< 1e-06	960000	11	4.1e-05	3.9e+06	–	–	–
B3	27100	7.5	600	0.00063	1e+06	4.6	1.9e-05	4.1e+06	–	–	–
B4	20600	8.2	620	0.00063	1e+06	12	4.7e-05	3.9e+06	–	–	–
B5	–	–	–	–	–	–	–	–	89 pM and 82 pM and 80 pM	0.00058 s⁻¹ and 0.00055 s⁻¹ and 0.00053 s⁻¹	6.5e+06 M⁻¹ s⁻¹ and 6.7e+06 M⁻¹ s⁻¹ and 6.6e+06 M⁻¹ s⁻¹
B6	–	–	–	–	–	–	–	–	110 pM and 96 pM	0.00055 s⁻¹ and 0.00057 s⁻¹ and 0.00051 s⁻¹	5.1e+06 M⁻¹ s⁻¹ and 6e+06 M⁻¹ s⁻¹ and 4.6e+06 M⁻¹ s⁻¹
B7	> 12000	24.1	630	0.00055	870000	5.2	1.9e-05	3.7e+06	–	–	–
B8	> 20000	6.9	630	0.00085	1.3e+06	6.8	2.7e-05	3.9e+06	–	–	–
B9	16200	8.9	560	0.00075	1.3e+06	20	6.2e-05	3.1e+06	–	–	–
